From patent publication US20240092841A1

Tests used:
[1] = target: ATP-binding cassette sub-family A member 2 (human) (UniProt Q9BZC7); assay: co-IP with agarose-bound AvFc from H460 whole-cell lysate, mass spectrometry
[2] = target: Transmembrane protein 106B (human) (UniProt Q9NUM4); assay: as above
[3] = target: Neural cell adhesion molecule L1 (human) (UniProt P32004); assay: as above
Integrin alpha-V (human) = Integrin alpha-V (human) (UniProt P06756); assay: as above
[4] = target: Laminin subunit gamma-1 (human) (UniProt P11047); assay: as above
[5] = target: Endothelial protein C receptor (human) (UniProt Q9UNN8); assay: as above
Integrin alpha-1 (human) = Integrin alpha-1 (human) (UniProt P56199); assay: as above
[6] = target: Metal transporter CNNM4 (human) (UniProt Q6P4Q7); assay: as above
[7] = target: Cation-independent mannose-6-phosphate receptor (human) (UniProt P11717); assay: as above
[8] = target: Sortilin-related receptor (human) (UniProt Q92673); assay: as above
[9] = target: Myoferlin (Q9NZM1-2) (human) (UniProt Q9NZM1); assay: as above
[10] = target: Attractin (O75882-2) (human) (UniProt O75882); assay: as above
[11] = target: Transferrin receptor protein 1 (human) (UniProt P02786); assay: as above
[12] = target: Contactin-associated protein 1 (human) (UniProt P78357); assay: as above
[13] = target: Disintegrin and metalloproteinase domain-containing protein 9 (human) (UniProt Q13443); assay: as above
Integrin alpha-3 (human) = Integrin alpha-3 (human) (UniProt P26006); assay: as above
[14] = target: Scavenger receptor class B member 1 (human) (UniProt Q8WTV0); assay: as above
[15] = target: Synaptonemal complex protein SC65 (human) (UniProt Q92791); assay: as above
Chain of UniProt Q92791 (Q92791 19-437 limits assumed, one chain of several): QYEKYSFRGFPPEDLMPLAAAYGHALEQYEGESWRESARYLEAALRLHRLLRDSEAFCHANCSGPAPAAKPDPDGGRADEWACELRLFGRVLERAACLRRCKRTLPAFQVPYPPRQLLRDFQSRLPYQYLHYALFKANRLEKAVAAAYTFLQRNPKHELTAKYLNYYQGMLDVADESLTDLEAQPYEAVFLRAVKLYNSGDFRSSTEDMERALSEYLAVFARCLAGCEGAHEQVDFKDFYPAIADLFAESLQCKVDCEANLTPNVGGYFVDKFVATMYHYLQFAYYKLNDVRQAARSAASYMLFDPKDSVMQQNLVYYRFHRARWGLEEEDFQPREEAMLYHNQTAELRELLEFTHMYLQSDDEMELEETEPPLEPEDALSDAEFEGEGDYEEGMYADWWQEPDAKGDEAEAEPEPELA

Fibronectin (human) = Fibronectin (human) (UniProt P02751); assay: as above
Chain of UniProt P02751 (P02751 other isoform, or with tags, fused parts or gaps limits assumed): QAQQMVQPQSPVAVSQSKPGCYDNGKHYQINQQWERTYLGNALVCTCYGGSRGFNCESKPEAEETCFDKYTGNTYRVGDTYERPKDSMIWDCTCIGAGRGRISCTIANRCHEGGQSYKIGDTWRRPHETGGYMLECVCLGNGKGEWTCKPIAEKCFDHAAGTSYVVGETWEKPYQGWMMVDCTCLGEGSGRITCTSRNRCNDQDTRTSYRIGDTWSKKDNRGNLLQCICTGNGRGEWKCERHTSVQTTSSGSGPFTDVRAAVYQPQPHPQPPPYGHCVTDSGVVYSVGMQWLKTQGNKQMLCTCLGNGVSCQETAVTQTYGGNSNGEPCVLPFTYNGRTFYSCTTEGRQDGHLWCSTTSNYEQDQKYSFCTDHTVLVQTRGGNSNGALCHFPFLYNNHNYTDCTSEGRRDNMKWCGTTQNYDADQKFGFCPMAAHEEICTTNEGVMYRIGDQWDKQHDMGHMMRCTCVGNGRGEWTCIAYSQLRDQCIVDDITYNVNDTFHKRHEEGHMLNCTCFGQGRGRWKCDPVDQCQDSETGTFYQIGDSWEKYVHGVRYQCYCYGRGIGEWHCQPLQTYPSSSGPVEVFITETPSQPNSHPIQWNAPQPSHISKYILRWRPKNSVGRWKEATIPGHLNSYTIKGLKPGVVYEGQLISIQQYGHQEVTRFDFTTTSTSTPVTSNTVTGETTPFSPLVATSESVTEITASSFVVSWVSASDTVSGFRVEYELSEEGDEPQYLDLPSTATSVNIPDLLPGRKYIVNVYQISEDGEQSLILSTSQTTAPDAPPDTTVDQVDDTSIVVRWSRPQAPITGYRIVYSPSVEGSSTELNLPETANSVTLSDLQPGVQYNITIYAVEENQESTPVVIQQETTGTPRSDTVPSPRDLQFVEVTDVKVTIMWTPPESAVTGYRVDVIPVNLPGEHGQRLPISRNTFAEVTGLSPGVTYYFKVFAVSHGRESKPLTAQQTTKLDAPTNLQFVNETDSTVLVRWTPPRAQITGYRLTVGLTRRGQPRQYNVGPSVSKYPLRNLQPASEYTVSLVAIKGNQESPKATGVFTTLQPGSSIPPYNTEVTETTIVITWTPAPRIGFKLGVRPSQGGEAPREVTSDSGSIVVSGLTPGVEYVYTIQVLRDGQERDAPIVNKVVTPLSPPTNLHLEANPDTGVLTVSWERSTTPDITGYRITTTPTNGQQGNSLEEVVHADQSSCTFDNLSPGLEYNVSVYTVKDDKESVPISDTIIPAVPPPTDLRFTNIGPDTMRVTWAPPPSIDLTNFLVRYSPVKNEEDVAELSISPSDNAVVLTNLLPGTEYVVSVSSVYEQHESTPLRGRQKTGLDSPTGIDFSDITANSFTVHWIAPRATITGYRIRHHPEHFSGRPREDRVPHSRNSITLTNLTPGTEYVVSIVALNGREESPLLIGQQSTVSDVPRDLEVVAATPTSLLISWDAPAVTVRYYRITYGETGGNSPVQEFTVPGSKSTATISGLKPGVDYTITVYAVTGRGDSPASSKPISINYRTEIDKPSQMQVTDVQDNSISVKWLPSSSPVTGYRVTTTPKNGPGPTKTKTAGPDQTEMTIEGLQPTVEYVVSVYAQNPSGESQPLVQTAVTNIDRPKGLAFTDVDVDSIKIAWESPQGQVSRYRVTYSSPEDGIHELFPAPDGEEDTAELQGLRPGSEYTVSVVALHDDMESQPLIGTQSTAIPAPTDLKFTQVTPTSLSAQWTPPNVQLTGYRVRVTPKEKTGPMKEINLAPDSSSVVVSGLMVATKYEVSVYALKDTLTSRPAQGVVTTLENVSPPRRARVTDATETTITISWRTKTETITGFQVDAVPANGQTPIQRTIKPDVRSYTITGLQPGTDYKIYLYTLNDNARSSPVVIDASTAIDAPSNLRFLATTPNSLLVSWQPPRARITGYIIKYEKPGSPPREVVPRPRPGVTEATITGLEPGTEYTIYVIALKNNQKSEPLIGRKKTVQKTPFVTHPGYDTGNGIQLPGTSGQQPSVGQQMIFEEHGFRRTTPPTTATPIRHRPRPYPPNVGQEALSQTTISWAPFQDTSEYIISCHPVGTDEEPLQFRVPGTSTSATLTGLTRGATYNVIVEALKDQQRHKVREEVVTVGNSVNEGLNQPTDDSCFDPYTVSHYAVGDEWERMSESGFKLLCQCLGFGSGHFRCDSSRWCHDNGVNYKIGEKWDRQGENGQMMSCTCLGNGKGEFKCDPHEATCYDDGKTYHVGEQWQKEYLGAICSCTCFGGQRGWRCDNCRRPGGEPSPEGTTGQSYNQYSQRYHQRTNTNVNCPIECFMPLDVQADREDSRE

[16] = target: Niemann-Pick C1 protein (human) (UniProt O15118); assay: as above
[17] = target: Cell cycle control protein 50A (human) (UniProt Q9NV96); assay: as above
Chain of UniProt Q9NV96 (Q9NV96 2-361 limits assumed): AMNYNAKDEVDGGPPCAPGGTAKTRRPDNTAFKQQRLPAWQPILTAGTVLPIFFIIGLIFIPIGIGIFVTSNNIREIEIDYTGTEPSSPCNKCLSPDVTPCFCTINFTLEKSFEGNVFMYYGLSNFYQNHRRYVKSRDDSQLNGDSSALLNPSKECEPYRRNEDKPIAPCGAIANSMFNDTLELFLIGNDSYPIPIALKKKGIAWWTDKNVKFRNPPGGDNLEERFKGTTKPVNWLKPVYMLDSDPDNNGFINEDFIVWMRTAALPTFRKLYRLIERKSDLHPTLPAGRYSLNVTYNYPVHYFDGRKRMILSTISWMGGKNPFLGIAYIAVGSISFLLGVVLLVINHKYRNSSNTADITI

Integrin alpha-5 (human) [18] = target: Integrin alpha-5 (human) (UniProt P08648); assay: as above
Chain of UniProt P08648 (P08648 42-1049 limits assumed): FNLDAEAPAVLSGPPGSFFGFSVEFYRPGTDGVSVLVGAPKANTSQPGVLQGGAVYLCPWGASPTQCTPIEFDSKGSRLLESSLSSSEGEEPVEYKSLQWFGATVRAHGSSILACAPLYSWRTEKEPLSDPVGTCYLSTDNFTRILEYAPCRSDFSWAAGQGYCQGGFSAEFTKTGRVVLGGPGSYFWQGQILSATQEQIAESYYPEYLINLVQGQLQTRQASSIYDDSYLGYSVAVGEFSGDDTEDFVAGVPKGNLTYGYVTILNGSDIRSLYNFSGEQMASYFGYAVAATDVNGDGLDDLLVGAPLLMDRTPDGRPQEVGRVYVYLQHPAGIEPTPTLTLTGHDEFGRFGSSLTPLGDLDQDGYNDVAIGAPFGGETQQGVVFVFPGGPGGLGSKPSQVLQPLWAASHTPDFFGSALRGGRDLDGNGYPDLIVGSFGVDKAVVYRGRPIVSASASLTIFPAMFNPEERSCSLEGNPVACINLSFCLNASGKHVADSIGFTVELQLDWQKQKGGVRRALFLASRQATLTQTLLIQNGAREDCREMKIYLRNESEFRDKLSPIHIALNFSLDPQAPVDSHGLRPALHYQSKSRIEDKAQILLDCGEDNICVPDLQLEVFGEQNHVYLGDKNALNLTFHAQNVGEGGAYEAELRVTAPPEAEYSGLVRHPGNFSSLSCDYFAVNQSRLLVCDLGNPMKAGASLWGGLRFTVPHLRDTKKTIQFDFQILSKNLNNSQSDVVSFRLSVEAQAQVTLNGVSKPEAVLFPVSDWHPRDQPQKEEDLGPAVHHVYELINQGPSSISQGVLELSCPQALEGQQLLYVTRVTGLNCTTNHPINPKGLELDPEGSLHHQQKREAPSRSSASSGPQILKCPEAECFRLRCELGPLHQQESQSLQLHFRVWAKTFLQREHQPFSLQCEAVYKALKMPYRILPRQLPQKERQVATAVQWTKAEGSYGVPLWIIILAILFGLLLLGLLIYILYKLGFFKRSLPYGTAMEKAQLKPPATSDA

[19] = target: CD109 antigen (Q6YHK3-4) (human) (UniProt Q6YHK3); assay: as above
[20] = target: Insulin-like growth factor 1 receptor (human) (UniProt P08069); assay: co-IP with agarose-bound AvFc from A549 whole-cell lysate, mass spectrometry
[21] = target: Transmembrane protein 131 (human) (UniProt Q92545); assay: as above
[22] = target: Disintegrin and metalloproteinase domain-containing protein 17 (human) (UniProt P78536); assay: as above
Chain of UniProt P78536 (P78536 215-824 limits assumed): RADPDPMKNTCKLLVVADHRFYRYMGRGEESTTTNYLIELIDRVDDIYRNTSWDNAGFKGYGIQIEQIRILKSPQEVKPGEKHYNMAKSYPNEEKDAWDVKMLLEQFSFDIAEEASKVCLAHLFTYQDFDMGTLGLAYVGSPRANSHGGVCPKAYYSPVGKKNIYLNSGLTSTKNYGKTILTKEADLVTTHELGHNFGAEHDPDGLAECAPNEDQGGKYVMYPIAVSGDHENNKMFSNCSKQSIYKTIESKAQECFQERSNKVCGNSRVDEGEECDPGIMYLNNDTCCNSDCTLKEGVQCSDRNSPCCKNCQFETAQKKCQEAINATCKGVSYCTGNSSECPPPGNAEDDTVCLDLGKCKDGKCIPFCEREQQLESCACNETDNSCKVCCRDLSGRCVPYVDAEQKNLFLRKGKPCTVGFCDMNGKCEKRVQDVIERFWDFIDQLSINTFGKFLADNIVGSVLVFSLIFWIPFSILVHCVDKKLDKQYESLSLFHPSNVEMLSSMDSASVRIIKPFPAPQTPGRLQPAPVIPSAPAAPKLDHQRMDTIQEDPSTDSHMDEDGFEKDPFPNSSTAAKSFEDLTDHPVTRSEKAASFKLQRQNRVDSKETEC

[23] = target: Importin subunit beta-1 (human) (UniProt Q14974); assay: as above
[24] = target: Laminin subunit beta-2 (human) (UniProt P55268); assay: as above
[25] = target: Tetratricopeptide repeat protein 13 (human) (UniProt Q8NBP0); assay: as above
[26] = target: Laminin subunit beta-1 (human) (UniProt P07942); assay: as above
[27] = target: T-complex protein 1 subunit theta (human) (UniProt P50990); assay: as above
Erlin-2 (human) = Erlin-2 (human) (UniProt O94905); assay: as above
Polycystin-2 (human) = Polycystin-2 (human) (UniProt Q13563); assay: as above
[28] = target: Cell cycle control protein 50A (human) (UniProt Q9NV96); assay: as above
Integrin beta-5 (human) = Integrin beta-5 (human) (UniProt P18084); assay: as above
Integrin alpha-5 (human) [29] = target: Integrin alpha-5 (human) (UniProt P08648); assay: as above
Mucin-5AC (human) = Mucin-5AC (human) (UniProt P98088); assay: as above
[30] = target: Cation-dependent mannose-6-phosphate receptor (human) (UniProt P20645); assay: as above

Chain of UniProt Q9NUM4 (Q9NUM4 2-274 limits assumed): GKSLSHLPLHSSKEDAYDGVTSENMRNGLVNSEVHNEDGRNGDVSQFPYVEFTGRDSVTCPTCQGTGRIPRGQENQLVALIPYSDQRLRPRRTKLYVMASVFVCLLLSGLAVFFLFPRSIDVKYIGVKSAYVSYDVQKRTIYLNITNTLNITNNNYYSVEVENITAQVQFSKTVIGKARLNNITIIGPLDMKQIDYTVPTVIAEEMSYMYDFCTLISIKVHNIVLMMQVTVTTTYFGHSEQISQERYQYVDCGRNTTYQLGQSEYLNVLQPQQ

Substance Avaren-Fc (AvFc) (Fc fusion) has a Percentage of Total Spectra (%) [1] of 0.21%, a Percentage of Total Spectra (%) [2] of 0.11% and a Percentage of Total Spectra (%) [3] of 0.099%. The Percentage of Total Spectra (%) (Integrin alpha-V (human)) was 0.13%, the Percentage of Total Spectra (%) [4] was 0.83% and the Percentage of Total Spectra (%) [5] was 0.033%. It also gave a Percentage of Total Spectra (%) (Integrin alpha-1 (human)) of 0.13%, a Percentage of Total Spectra (%) [6] of 0.083% and a Percentage of Total Spectra (%) [7] of 0.44%. It also gave a Percentage of Total Spectra (%) [8] of 0.058%, a Percentage of Total Spectra (%) [9] of 0.11% and a Percentage of Total Spectra (%) [10] of 0.058%. The Percentage of Total Spectra (%) [11] was 0.21%, the Percentage of Total Spectra (%) [12] was 0.13% and the Percentage of Total Spectra (%) [13] was 0.091%. For the same substance, the Percentage of Total Spectra (%) (Integrin alpha-3 (human)) was 0.025%, the Percentage of Total Spectra (%) [14] was 0.15% and the Percentage of Total Spectra (%) [15] was 0.066%. The Percentage of Total Spectra (%) (Fibronectin (human)) was 0.21%, the Percentage of Total Spectra (%) [16] was 0.066% and the Percentage of Total Spectra (%) [17] was 0.033%. It also gave a Percentage of Total Spectra (%) (Integrin alpha-5 (human) [18]) of 0.041%, a Percentage of Total Spectra (%) [19] of 0.13% and a Percentage of Total Spectra (%) [20] of 0.091%. The Percentage of Total Spectra (%) [21] was 0.056%, the Percentage of Total Spectra (%) [22] was 0.056% and the Percentage of Total Spectra (%) [23] was 0.056%. For the same substance, the Percentage of Total Spectra (%) [24] was 0.056%, the Percentage of Total Spectra (%) [25] was 0.13% and the Percentage of Total Spectra (%) [26] was 0.41%. For the same substance, the Percentage of Total Spectra (%) [27] was 0.091%, the Percentage of Total Spectra (%) (Erlin-2 (human)) was 0.15% and the Percentage of Total Spectra (%) (Polycystin-2 (human)) was 0.17%. It also gave a Percentage of Total Spectra (%) [28] of 0.021%, a Percentage of Total Spectra (%) (Integrin beta-5 (human)) of 0.11% and a Percentage of Total Spectra (%) (Integrin alpha-5 (human) [29]) of 0.035%. For the same substance, the Percentage of Total Spectra (%) (Mucin-5AC (human)) was 0.21% and the Percentage of Total Spectra (%) [30] was 0.028%.
